Results on 1 substance are retold here after US20040068761.

For this series, the system named is FLP recombinase. Kind of series: cell_activity. The note with it: excision of y+ donor flanked by FRTs (33,668/33,790 w+ progeny lost y+), with I-SceI co-expressed in Drosophila.

In the case of “FRT (FLP recombination target) from yeast 2 micron plasmid”, the activity was found to be 99.6%.
